From US20230355533A1, “BIODEGRADABLE POLYCAPROLACTONE CAPSULE FOR ANTIBODY RELEASE AND DEGRADATION” (University Of Cincinnati, priority 2022, published 2023)

Key:
[1] = test system: TNF-α stimulated HUVECs; assay: IL-6 ELISA assay; type: cell-based, Human; settings: Dex 33 μM, 24 h pretreatment, then 20 ng/mL TNF-α 24 h
Description: Human primary umbilical vein endothelial cells (HUVECs) were maintained in EBMTM-2 Basal Medium and EGMTM-2 SingleQuots™ Supplements (Lonza, Switzerland). HUVECs were grown in the cell incubator containing 5% CO2 at 37° C. When the cells were grown to 90% confluence, they were inoculated in 24-well plates. Briefly, 0.4 mL of HUVECs suspensions (8×104 HUVECs per well) were seeded in 24-well plates and incubated at 37° C, 5% CO2 for 24 h. […] After 24 h, all the conditions except the medium only were incubated with 20 ng/mL TNF-α for 24 h. […] At the end of experiments, the cell medium was collected and centrifuged at 2,000×g for 10 min to remove the particulate/debris materials. Then, supernatant was collected and stored at −20° C. until used. Each sample was pre-diluted using a standard dilution buffer to keep the sample concentrations within the range of standard curve. The concentration of pro-inflammatory cytokine (IL-6) in the cell culture supernatant was analyzed by the ELISA assay according to the manufacturer's recommendation (Invitrogen® human IL-6 ELISA kit). All tests were done in triplicate.

[2] = Bev permeability across PCL membrane, vertical permeability column; type: physicochemical; settings: 0.05 PEG PCL membrane, donor 50 mg/mL, area 0.78 cm^2
Description: The permeability experiments were conducted using a vertical permeability column. The donor side was filled with 200 μL of 50 mg/mL Bev solution and the receiver side was filled with 5 mL of PBS. […] The membranes were soaked in DI water for 24 h to remove the PEG and then placed in the column without drying. Once the membrane was securely placed between the donor and receiver sections, 200 μL of the donor solution was loaded and then the opening was sealed off to reduce evaporation altering the concentration of the donor and receiver solutions. 500 μL of the receiver and 10 μL of the donor solution were removed every 72 h to check the concentration using UV-Vis. The removed solutions were replaced by fresh PBS for the receiver solution and the donor was replaced by fresh donor solution or completely replaced depending on the remaining concentration.
After 12 days, the mass of Bev that permeated the membrane was plotted against time to get dQ/dt in the equation: […]
where Ci is the initial concentration (donor solution concentration), P is the permeability coefficient, and A is the area of the exposed membrane.

[3] = Bev partition coefficient in PCL membrane; type: physicochemical; settings: equilibrium solution of 20 mg/mL
Description: The partition coefficient K is required for the release kinetics model equation. […] The membranes were soaked in 200 μL of PBS for 48 h. After 48 h the membranes were blotted with a Kimwipe to remove surface liquid and then weighed to determine the wet mass of the membrane. The membranes were then dried overnight in a chemical hood. The dry membranes were then placed in 200 μL of an equilibrium Bev solution for 72 h to allow the membranes to absorb the Bev from the solution. After 72 h the membranes were removed from the equilibrium, blotted, and placed in 200 μL of fresh PBS to extract Bev for 48 h. This extraction process was repeated until the amount extracted was 10% of the first extraction. The remaining equilibrium solution and all extraction solutions were analyzed using UV-Vis to determine the Bev concentration. The partition coefficient was then determined using the equation below.
where Me is the total mass extracted, W is the wet mass of the membrane, Meq is the amount of Bev left in the equilibrium solution, V is the volume of water left in the equilibrium solution, and ρ is the density of the solution.

[4] = Bev drug release kinetics model (cylindrical reservoir); settings: calculated from Stokes-Einstein diffusion coefficient and hindrance factor
From the text: The equation used to model the release profile is
where Mt is the mass released at time t, M∞, is the mass loaded in the implant, Ri is the inner radius of the implant, Ro is outer radius of the implant, De is the effective diffusivity, K is the partition coefficient, and L is the length of the implant. This equation models Fick's law of diffusion of molecules from the lumen of a cylindrical implant through a membrane wall. Ro, Ri, and L can all be measured from the implants, but De and K must be determined experimentally or calculated from other parameters that can be determined experimentally to create this model. K may be determined experimentally, as described herein. To find De, permeability, Stokes-Einstein diffusion, hindrance factor for diffusion, hindrance factor, and the restrictive factor all were determined experimentally or calculated.
The permeability of Bev across the PCL membrane can be described by […]
where kB is the Boltzmann constant, T is the temperature in Kelvin, η is the viscosity of water at 25° C., and r is the hydrodynamic radius of Bev. The overall hindrance factor for diffusion, H, is expressed as: […]
where λ is the ratio of permeant radius to pore radius and Kt, the hinderance factor, is calculated by: […]
The last value that needs to be determined for Equation 3 is effective diffusivity (De). De can be determined from the equation: […]

Substance	IL-6 level in cell culture medium compared to TNF-α stimulated HUVECs (condition 2) [1]	Bev permeated across the membrane [2] [µg/day]	partition coefficient K [3]	effective diffusion coefficient De [4]
Dexamethasone sodium phosphate [free Dex]	not significantly decreased	–	–	–
Bevacizumab	–	42.5	0.515	5.59 × 10^−6 cm^2/day
